Measurements published in patent KR20160093503A (dated 2016).

Tests used:
[1] = target: T1, DRS (Aspartyl-tRNA synthetase), purified recombinant (UniProt P14868 1-501, limits assumed); test: Luminex multiplex bead assay, antigen coupled to beads, relative to CRS
T1 construct: also called 아스파틸-tRNA 합성효소
T1 sequence (looked up): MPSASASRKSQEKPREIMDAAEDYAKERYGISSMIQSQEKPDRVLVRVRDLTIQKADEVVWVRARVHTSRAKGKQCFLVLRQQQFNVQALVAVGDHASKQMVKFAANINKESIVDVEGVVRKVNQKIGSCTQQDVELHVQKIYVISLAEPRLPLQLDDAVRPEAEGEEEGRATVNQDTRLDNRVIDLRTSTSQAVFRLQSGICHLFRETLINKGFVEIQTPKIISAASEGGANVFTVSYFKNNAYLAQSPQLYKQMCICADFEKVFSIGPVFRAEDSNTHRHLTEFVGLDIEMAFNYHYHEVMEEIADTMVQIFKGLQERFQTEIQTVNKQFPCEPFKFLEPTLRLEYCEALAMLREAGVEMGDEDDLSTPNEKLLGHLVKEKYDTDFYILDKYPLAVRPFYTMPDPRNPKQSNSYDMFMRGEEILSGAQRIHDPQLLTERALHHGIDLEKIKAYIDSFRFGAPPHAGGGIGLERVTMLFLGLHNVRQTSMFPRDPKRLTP

[2] = target: T2, EPRS WHEP domain (Glutamyl-prolyl tRNA synthetase), purified recombinant (UniProt P07814 749-956, limits assumed); test: as above
T2 construct: domain: WHEP domain; also called 글루타밀-프로릴-tRNA 합성효소
T2 sequence (looked up): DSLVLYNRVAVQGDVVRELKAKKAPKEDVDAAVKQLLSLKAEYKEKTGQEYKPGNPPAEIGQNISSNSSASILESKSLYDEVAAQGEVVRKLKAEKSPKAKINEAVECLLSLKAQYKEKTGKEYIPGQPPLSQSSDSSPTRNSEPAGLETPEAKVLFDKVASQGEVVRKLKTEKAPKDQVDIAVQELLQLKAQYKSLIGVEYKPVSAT

[3] = target: T3, WRS (Tryptophanyl-tRNA synthetase), purified recombinant (UniProt P23381 1-471, limits assumed); test: as above
T3 construct: also called 트립토파닐-tRNA 합성효소
T3 sequence (looked up): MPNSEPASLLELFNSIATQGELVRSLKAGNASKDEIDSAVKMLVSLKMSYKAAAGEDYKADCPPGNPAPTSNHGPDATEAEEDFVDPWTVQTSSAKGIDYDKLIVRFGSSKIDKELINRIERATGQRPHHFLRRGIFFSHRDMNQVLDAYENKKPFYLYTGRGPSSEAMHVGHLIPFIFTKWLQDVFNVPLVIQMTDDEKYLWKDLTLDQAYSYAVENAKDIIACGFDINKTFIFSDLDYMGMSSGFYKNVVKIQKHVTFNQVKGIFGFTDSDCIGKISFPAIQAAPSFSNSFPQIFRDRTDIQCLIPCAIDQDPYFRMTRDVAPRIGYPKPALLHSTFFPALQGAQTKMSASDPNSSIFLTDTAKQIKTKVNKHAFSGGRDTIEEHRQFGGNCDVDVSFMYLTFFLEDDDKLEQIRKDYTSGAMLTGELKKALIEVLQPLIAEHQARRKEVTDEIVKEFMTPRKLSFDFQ

[4] = target: T4, HRS (Histidyl-tRNA synthetase), purified recombinant (UniProt P12081 1-509, limits assumed); test: as above
T4 construct: also called 히스티딜-tRNA 합성효소
T4 sequence (looked up): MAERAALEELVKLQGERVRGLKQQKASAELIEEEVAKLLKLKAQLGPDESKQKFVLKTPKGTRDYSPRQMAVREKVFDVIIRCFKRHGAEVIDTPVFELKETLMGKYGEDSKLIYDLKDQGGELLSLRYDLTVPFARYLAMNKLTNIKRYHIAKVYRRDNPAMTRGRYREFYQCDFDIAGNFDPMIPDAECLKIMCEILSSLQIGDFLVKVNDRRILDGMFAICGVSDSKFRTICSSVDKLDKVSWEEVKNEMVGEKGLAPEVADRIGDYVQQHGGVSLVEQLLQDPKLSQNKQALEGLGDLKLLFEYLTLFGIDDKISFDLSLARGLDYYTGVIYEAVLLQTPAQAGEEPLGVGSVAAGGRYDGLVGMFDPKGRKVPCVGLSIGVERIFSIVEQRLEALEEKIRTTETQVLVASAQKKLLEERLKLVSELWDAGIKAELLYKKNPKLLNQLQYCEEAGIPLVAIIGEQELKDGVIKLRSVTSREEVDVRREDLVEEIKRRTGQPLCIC

[5] = target: T5, AIMP1 (Aminoacyl-tRNA-synthetase-interacting multifunctional protein 1), purified recombinant (UniProt Q12904 1-312, limits assumed); test: as above
T5 construct: also called AIMP1(p43); p43
T5 sequence (looked up): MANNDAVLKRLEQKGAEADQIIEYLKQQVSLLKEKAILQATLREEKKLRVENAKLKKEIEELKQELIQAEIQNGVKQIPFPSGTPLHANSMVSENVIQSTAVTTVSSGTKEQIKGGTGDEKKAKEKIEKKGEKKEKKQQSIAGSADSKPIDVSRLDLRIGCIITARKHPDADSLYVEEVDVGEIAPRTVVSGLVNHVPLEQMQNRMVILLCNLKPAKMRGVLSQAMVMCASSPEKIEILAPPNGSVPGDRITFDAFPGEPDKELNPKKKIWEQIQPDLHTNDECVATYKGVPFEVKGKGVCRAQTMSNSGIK

[6] = target: T6, AIMP3 (Aminoacyl-tRNA-synthetase-interacting multifunctional protein 3), purified recombinant (UniProt O43324 1-174, limits assumed); test: as above
T6 construct: also called AIMP3(p18); p18
T6 sequence (looked up): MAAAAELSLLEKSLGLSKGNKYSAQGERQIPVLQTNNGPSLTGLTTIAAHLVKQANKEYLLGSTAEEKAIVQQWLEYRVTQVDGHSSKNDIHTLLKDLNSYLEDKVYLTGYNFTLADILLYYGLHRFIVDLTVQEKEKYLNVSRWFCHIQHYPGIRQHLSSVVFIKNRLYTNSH

[7] = target: T7, CRS (Cysteinyl-tRNA synthetase), purified recombinant antigen (human, UniProt P49589 1-748, limits assumed); test: SPR (ProteOn XPR36), CRS amine-coupled on GLC chip, scFv 500-30 nM as analyte, 25 C
T7 construct: also called CRS 항원; 재조합 CRS 표준물질
T7 sequence (looked up): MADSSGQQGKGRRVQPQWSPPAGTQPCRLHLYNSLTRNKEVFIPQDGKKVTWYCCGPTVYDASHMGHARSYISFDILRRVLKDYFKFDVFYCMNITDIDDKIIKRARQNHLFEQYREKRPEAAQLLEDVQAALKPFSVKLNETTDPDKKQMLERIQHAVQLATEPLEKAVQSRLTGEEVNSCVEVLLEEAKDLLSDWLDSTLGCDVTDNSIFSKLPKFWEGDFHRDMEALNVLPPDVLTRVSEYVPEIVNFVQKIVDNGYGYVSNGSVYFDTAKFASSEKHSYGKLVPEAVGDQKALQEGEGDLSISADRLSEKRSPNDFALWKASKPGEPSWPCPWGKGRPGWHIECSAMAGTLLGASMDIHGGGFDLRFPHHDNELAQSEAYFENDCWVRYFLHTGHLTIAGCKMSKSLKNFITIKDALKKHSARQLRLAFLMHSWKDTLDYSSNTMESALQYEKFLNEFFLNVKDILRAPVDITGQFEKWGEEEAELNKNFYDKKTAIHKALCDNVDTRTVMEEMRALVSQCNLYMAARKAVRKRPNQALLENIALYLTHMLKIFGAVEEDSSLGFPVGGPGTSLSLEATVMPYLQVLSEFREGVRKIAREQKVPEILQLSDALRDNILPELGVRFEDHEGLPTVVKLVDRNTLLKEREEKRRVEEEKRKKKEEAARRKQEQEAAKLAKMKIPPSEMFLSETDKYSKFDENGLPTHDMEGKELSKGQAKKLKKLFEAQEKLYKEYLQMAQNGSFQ

교차 반응성 (cross-reactivity) [1]: ≤ 10% | 교차 반응성 (cross-reactivity) [2]: ≤ 10% | 교차 반응성 (cross-reactivity) [3]: ≤ 10% | 교차 반응성 (cross-reactivity) [4]: ≤ 10% | 교차 반응성 (cross-reactivity) [5]: ≤ 10% | 교차 반응성 (cross-reactivity) [6]: ≤ 10% | Kd [7]: 60 nM
B1: anti-CRS scFv Biocon-K1 (scFv)
scFv: EVQLLESGGGLVQPVGSLRLSCAASGFTFSNYAMSWVRQAPGKGLEWVSWIYSKGRSTYYGDSAKGRFTISRDNSKNTLYLQMNSLRAEDTAVYYCAKRDNAFDYWGQGTLVTVSSGGGGSGGGGSGGGGSQSVLTQPPSASGTPGQRVTISCSGSSSNIGNNYVYWYQQLPGTAPKLLIYADSQRPSGVPDRFSGSKSGTSASLAISGLRSEDEADYYCGAWDSSLNGYVFGGGTKLTVL
notes: It was expressed from pComb3X in the E. coli periplasm, purified on Ni-NTA and detected with anti-HA; Human VH3-23/VL1g framework; also called 항 CRS scFv 항체; 본 발명의 항체
